Assay results as given in PMC13022675.

Target: GFP-tagged MR1A (MR1-GFP) expressed in clonal cell line D6 (D6ins and D6del mutants) (UniProt Q95460)
Chain of UniProt Q95460 (Q95460 23-341, stated change not applied): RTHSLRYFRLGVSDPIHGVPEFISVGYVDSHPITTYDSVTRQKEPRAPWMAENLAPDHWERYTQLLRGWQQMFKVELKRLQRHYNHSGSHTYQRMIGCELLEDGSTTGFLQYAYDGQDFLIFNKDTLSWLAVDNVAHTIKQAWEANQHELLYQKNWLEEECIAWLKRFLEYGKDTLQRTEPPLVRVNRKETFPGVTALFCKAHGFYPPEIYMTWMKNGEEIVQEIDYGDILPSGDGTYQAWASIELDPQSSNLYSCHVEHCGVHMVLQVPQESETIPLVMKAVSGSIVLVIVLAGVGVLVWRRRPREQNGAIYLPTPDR

fully folded MR1 (antibody clone 26.5) remaining at the cell surface 6 h after brefeldin A, flow cytometry: 20%
Substance: β2-microglobulin (from UniProt P61769 21-119) (natural protein)
